# Laboratory results reported in patent publication US20230235048A1 (PROTHENA BIOSCIENCES, published 2023).
# T1: extracellular domain (ECD) of recombinant human Sortilin with a C-terminal HIS tag (ECD-huSortilin-HIS) (human, UniProt Q99523 78-755)
# T1 construct: Bought (R&D Systems); also called human sortilin-ECD; not shown: C-terminal HIS tag
# T1 sequence: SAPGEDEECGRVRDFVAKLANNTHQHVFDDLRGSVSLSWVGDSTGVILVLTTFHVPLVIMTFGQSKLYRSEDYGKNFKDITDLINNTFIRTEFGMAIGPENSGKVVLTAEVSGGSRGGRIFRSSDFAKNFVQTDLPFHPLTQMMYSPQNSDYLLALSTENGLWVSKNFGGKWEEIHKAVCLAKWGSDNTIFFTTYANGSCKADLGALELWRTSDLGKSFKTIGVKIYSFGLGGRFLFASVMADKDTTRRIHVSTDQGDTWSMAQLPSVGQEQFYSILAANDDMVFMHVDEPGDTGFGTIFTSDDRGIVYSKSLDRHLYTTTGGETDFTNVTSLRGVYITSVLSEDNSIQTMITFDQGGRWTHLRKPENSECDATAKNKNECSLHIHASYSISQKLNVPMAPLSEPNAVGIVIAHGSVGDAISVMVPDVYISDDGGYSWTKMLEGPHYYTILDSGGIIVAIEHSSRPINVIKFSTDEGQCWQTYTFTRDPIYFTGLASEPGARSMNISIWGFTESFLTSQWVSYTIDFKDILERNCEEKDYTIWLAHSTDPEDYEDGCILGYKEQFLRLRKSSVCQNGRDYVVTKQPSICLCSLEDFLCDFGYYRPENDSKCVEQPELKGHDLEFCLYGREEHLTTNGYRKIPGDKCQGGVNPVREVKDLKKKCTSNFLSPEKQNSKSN
# Experiments:
# [1] = molecular target: T1, extracellular domain (ECD) of …; assay: SPR (Biacore T200), mAb captured by anti-human antibody on CM5, Sortilin 0.1-300 nM as analyte, global 1:1 fit
# Experimental: Analysis was performed using a Biacore T200 to compare the binding affinity of chimeric and humanized antibodies to recombinant human Sortilin. Anti-Human antibody was immobilized on sensor chip CM5 (GE Healthcare Life Sciences) via amine coupling, and humanized antibodies (ligand) were captured to a level to ensure a maximum binding of analyte of 50 RU (approximately 100 RU of ligand binding). Various concentrations of Sortilin (ranging from 0.1 nM to 300 nM) were passed over the captured ligand at 50 μL/min in running buffer (HBS+0.05% P-20, 1 mg/mL BSA) for 300s association time and 1200s dissociation time. Regeneration of the chip surface was accomplished by 2 short injections of 3M MgCl. Data was blank subtracted to both a sensor not containing ligand and 0 nM analyte concentration. Analysis was performed using a global 1:1 fit with Biacore Insight Evaluation software (v2.0) with bulk refractive index set to zero RU.
# [2] = molecular target: T1, extracellular domain (ECD) of …; assay: ELISA, ECD-huSortilin-HIS coated at 1 ug/mL, goat anti-human IgG-HRP, chemiluminescence
# Experimental: 384-well ELISA plates were coated with 1 ug/mL recombinant ECD-huSortilin-HIS (20 uL/well) and incubated overnight at 4° C. all plates were blocked with 3% BSA in PBS for 1 hour at room temperature. Plates were then washed with Tris buffered saline containing 0.1% Tween20 (TBST) three times. 20 uL of humanized anti-Sortilin mAbs diluted 3-fold from 20 ug/mL to 0.3 ng/mL in 1% BSA in TBST were added to the wells, incubated for 1 hour at room temperature and then washed as above. Goat anti-human IgG specific-HRP (Jackson Immunoresearch) diluted 1:7000 in 1% BSA in TBST was then added at 20 uL per well to react with the bound antibodies and plates were incubated for 1 hour before being washed as above. Super signal Pico chemiluminescent ELISA substrate (ThermoFisher) was used for detection. 20 uL of substrate was added to each well and Relative Light Units (RLU) were measured immediately using the SpectraMax Paradigm (Molecular Devices). Data was analyzed and EC₅₀ was calculated using graphed Prism.
Binder,Kd [1] [nM],koff [1] [s⁻¹],kon [1] [M⁻¹ s⁻¹],EC50 [2] [µg/mL]
"humanized 8H24 hu8H24VHv1/hu8H24VLv1 (antibody, V domains shown, Human IgG; also called 8H24H1L1) VH: QAQLVQSGAEVKKPGSSVKVSCKASGYTFTSYSMHWVRQAPGQGLEWIGAIYPGNDATSYNQKFKGRATLTVDKSTSTAYMELSSLRSEDTAVYFCAREGYYGSSFEAWFASWGQGTTVTVSS VL: DVVMTQTPLSLPVTPGEPASISCRSSQSIVHSNGNTYLEWYLQKPGQSPQLLIYKVSNRFSGVPDRFSGSGSGTDFTLKISRVEAEDVGVYYCFQGSHVLPTFGGGTKVEIK",2.22,0.00141,637000,0.14
"humanized 8H24 hu8H24VHv2/hu8H24VLv1 (antibody, V domains shown, Human IgG; also called 8H24H2L1) VH: QAQLVQSGAEVVKPGSSVKVSCKASGYTFTSYSMHWVRQAPGQGLEWIGAIYPGNDATSYNQKFKGRATLTVDKSTSTAYMELSSLRSEDTAVYFCAREGYYGSSFEAWFASWGQGTTVTVSS VL: DVVMTQTPLSLPVTPGEPASISCRSSQSIVHSNGNTYLEWYLQKPGQSPQLLIYKVSNRFSGVPDRFSGSGSGTDFTLKISRVEAEDVGVYYCFQGSHVLPTFGGGTKVEIK",2.29,0.00157,684000,0.06
"humanized 11M14 hu11M14VHv3b/hu11M14VLv4b (antibody, V domains shown, Human IgG; also called 11M14H3bL4b) VH: EVQLVESGGGLVQPGGSLRLSCAASGFTFNIYGMSWVRQAPGKGLEWVATISSGGIYTYYPDILKGRFTISRDNAKNSLYGQMNSLRAEDTAVYYCARHPGGAMDYWGQGTLVTVSS VL: DIQMTQSPSSLSASVGDRVTITCRVSENIYSNLAWYQQKPGKSPKLLVYAATNIADGVPSRFSGSGSGTDYTLTISSLQPEDFATYYCQHFWGTPPWTFGQGTKLEIK",7.91,0.00344,435000,0.1
"chimeric 5E20 (antibody, human IgG1, kappa, L234A L235A, V domains shown, The entries are described as 'a chimeric 5E20 heavy chain' and 'light chain') VH: EVQLVESGGDLVKPGGSLKLSCAAPGFTFSTYGMSWVRQTPDKRLEWVAIISSGGSYTYYSDTVKGRFTISRDNAKNTLYLQMSSLKSEDTAMYYCSRSSSHWYFDVWGTGTTVTVSS VL: DILMTQSPSSMSVSLGDTVSITCHASQGISSNIGWLQQKPGKSFKGLIYHGTNLKDGVPSRFSGSGSGADFSLTISSLESEDFADYFCVQYAQFPYTFGGGTKLEIKR",0.66,,,0.07
"humanized 5E20 hu5E20VHv3/hu5E20VLv3 (antibody, V domains shown, Human IgG; also called 5E20H3L3) VH: EVQLVESGGGLVQPGGSLRLSCAASGFTFSTYGMSWVRQAPGKRLEWVAIISSGGSYTYYSDTVKGRFTISRDNSKNSLYLQMNSLRAEDTAVYYCSRSSSHWYFDVWGQGTLVTVSS VL: DIQMTQSPSSVSASVGDRVTITCHASQGISSNIGWLQQKPGKAFKGLIYHGTNLKDGVPSRFSGSGSGADFTLTISSLQPEDFATYFCVQYAQFPYTFGQGTKVEKR",15.3,0.0028,183000,0.09
"humanized 5E20 hu5E20VHv5/hu5E20VLv3 (antibody, V domains shown, Human IgG; also called 5E20H5L3) VH: EVQLVESGGGLVQPGGSLRLSCAASGFTFSTYGMSWVRQAPDKRLEWVAIISSGGSYTYYSDTVKGRFTISRDNSKNSLYLQMNSLKAEDTAVYYCSRSSSHWYFDVWGQGTLVTVSS VL: DIQMTQSPSSVSASVGDRVTITCHASQGISSNIGWLQQKPGKAFKGLIYHGTNLKDGVPSRFSGSGSGADFTLTISSLQPEDFATYFCVQYAQFPYTFGQGTKVEKR",6.01,0.0014,233000,0.07
"humanized 5E20 hu5E20VHv4/hu5E20VLv3 (antibody, V domains shown, Human IgG; also called 5E20H4L3) VH: EVQLVESGGGLVQPGGSLRLSCAASGFTFSTYGMSWVRQAPDKRLEWVAIISSGGSYTYYSDTVKGRFTISRDNSKNSLYLQMNSLRAEDTAVYYCSRSSSHWYFDVWGQGTLVTVSS VL: DIQMTQSPSSVSASVGDRVTITCHASQGISSNIGWLQQKPGKAFKGLIYHGTNLKDGVPSRFSGSGSGADFTLTISSLQPEDFATYFCVQYAQFPYTFGQGTKVEKR",6.36,0.00145,228000,0.07
"humanized 5E20 hu5E20VHv7/hu5E20VLv3 (antibody, V domains shown, Human IgG; also called 5E20H7L3) VH: EVQLVESGGGLVQPGGSLRLSCAASGFTFSTYGMSWVRQTPDKRLEWVAIISSGGSYTYYSDTVKGRFTISRDNSKNSLYLQMNSLRAEDTAVYYCSRSSSHWYFDVWGQGTLVTVSS VL: DIQMTQSPSSVSASVGDRVTITCHASQGISSNIGWLQQKPGKAFKGLIYHGTNLKDGVPSRFSGSGSGADFTLTISSLQPEDFATYFCVQYAQFPYTFGQGTKVEKR",4.18,0.00108,259000,0.06

# Continued by falling Kd [1], values first:
Kd [1] [nM],koff [1] [s⁻¹],kon [1] [M⁻¹ s⁻¹],EC50 [2] [µg/mL],Binder
14.8,0.00257,174000,0.07,"humanized 5E20 hu5E20VHv3/hu5E20VLv4 (antibody, V domains shown, Human IgG; also called 5E20H3L4) VH: EVQLVESGGGLVQPGGSLRLSCAASGFTFSTYGMSWVRQAPGKRLEWVAIISSGGSYTYYSDTVKGRFTISRDNSKNSLYLQMNSLRAEDTAVYYCSRSSSHWYFDVWGQGTLVTVSS VL: DIQMTQSPSSVSASVGDRVTITCHASQGISSNIGWLQQKPGKAFKGLIYHGTNLKDGVPSRFSGSGSGADFTLTISSLQPEDFADYFCVQYAQFPYTFGQGTKVEKR"
5.57,0.00117,209000,0.04,"humanized 5E20 hu5E20VHv4/hu5E20VLv4 (antibody, V domains shown, Human IgG; also called 5E20H4L4) VH: EVQLVESGGGLVQPGGSLRLSCAASGFTFSTYGMSWVRQAPDKRLEWVAIISSGGSYTYYSDTVKGRFTISRDNSKNSLYLQMNSLRAEDTAVYYCSRSSSHWYFDVWGQGTLVTVSS VL: DIQMTQSPSSVSASVGDRVTITCHASQGISSNIGWLQQKPGKAFKGLIYHGTNLKDGVPSRFSGSGSGADFTLTISSLQPEDFADYFCVQYAQFPYTFGQGTKVEKR"
5.46,0.00115,211000,0.05,"humanized 5E20 hu5E20VHv5/hu5E20VLv4 (antibody, V domains shown, Human IgG; also called 5E20H5L4) VH: EVQLVESGGGLVQPGGSLRLSCAASGFTFSTYGMSWVRQAPDKRLEWVAIISSGGSYTYYSDTVKGRFTISRDNSKNSLYLQMNSLKAEDTAVYYCSRSSSHWYFDVWGQGTLVTVSS VL: DIQMTQSPSSVSASVGDRVTITCHASQGISSNIGWLQQKPGKAFKGLIYHGTNLKDGVPSRFSGSGSGADFTLTISSLQPEDFADYFCVQYAQFPYTFGQGTKVEKR"
5.02,0.0011,218000,0.04,"humanized 5E20 hu5E20VHv7/hu5E20VLv4 (antibody, V domains shown, Human IgG; also called 5E20H7L4; hu5E20H7L4) VH: EVQLVESGGGLVQPGGSLRLSCAASGFTFSTYGMSWVRQTPDKRLEWVAIISSGGSYTYYSDTVKGRFTISRDNSKNSLYLQMNSLRAEDTAVYYCSRSSSHWYFDVWGQGTLVTVSS VL: DIQMTQSPSSVSASVGDRVTITCHASQGISSNIGWLQQKPGKAFKGLIYHGTNLKDGVPSRFSGSGSGADFTLTISSLQPEDFADYFCVQYAQFPYTFGQGTKVEKR"
3.22,0.0015,466000,0.07,"humanized 8H24 hu8H24VHv2/hu8H24VLv2 (antibody, V domains shown, Human IgG; also called 8H24H2L2) VH: QAQLVQSGAEVVKPGSSVKVSCKASGYTFTSYSMHWVRQAPGQGLEWIGAIYPGNDATSYNQKFKGRATLTVDKSTSTAYMELSSLRSEDTAVYFCAREGYYGSSFEAWFASWGQGTTVTVSS VL: DVVMTQTPSSLPVTPGEPASISCRSSQSIVHSNGNTYLEWYLQKPGQSPQLLIYKVSNRFSGVPDRFSGSGSGTDFTLTISRVEAEDVGVYYCFQGSHVLPTFGGGTKVEIK"
2.98,0.00134,450000,0.1,"humanized 8H24 hu8H24VHv1/hu8H24VLv2 (antibody, V domains shown, Human IgG; also called 8H24H1L2; hu8H24H1L2) VH: QAQLVQSGAEVKKPGSSVKVSCKASGYTFTSYSMHWVRQAPGQGLEWIGAIYPGNDATSYNQKFKGRATLTVDKSTSTAYMELSSLRSEDTAVYFCAREGYYGSSFEAWFASWGQGTTVTVSS VL: DVVMTQTPSSLPVTPGEPASISCRSSQSIVHSNGNTYLEWYLQKPGQSPQLLIYKVSNRFSGVPDRFSGSGSGTDFTLTISRVEAEDVGVYYCFQGSHVLPTFGGGTKVEIK"
